We go through 20 sequences from the nanobody polyreactivity screen of Harvey et al. (2022).

This data set is described as follows: yeast display, Sf9 membrane polyspecificity reagent, FACS + sequencing; frameworks hold sequencing errors. Summed up: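 In a synthetic yeast display library (Saccharomyces cerevisiae BJ5465), nanobody expression was induced with galactose for 36–48 hours. FACS gates were set low and high (top ~1%) using anti-HA fluorescence for expression and streptavidin fluorescence for binding of the Sf9 membrane reagent. Each polyreactivity label is drawn from the gate of origin.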
Take “QVQLVESGGGLGQAGGSLRLSCAASGSTFARNTMGWYRQAPGKERELVAVITRGDSTYYADSVKGRFTISRDNAKNTVNLQMNSLKPEDTAVYYCNAYFRYAYPSKMDYWGQGTQVTVSS”: the “polyreactivity (PSR sort gate)” value was “low polyreactivity”.
With “QVQLEESGGGLVQAGGSLRLSCAASGRIFSDYAKGGYRQAPGKERELVATITSGDSTNYADSVKGRFTISRDNAKNTVYLQMNRLKPEDTAVYYCNADRFADYDYWGQGTQVTVSS”, the “polyreactivity (PSR sort gate)” value is reported as “low polyreactivity”.
As for “QVQLVESGGGLVQAGGSLRLSCAASGLIFQWYAMGWYRQAPGKERELVAAITGSGGSTYYADSVKGRFTISRDNAKNTVYLQMNSLKPEDTAVYYCNAGASRRYGYWGQGTQVTVSS”, the “polyreactivity (PSR sort gate)” value is on record as “high polyreactivity”.
Consider “QVQLVESGGGLVQAGGSLRLSCAASGSTFRGYAMGWYRQAPGKERELVAAISWSGVSTYYADSVKGRFTISRDNAKNTVYLQMNSLKPEDTAVYYCAAGYSSAYLRFGYWGQGTQVTVSS”, for which the “polyreactivity (PSR sort gate)” value was “low polyreactivity”.
For the sequence “KVQLVESGGGLVQAGGSLRISCAASGIIFLGYAMGWYRQAPGKERELVAGISSRGGSTYYADSVKGRFTISRDNAKNTVYLQMNSLKPADSAVYYCAAVSRGSGRDYWGQGTQVTVSS”, the “polyreactivity (PSR sort gate)” value is reported as “high polyreactivity”.
For the sequence “QVQLVESGGGLVQAGGSLRLSCAASGFTFVYYAMGWYRQAPGKERELVAAISRRGGNTNYADSVKGRFTISRDNEKNTVYLQMNSLKTEDTAVYYCNARLTGDRYYYYPMDYWGQGTQVTVST”, the “polyreactivity (PSR sort gate)” value is listed as “high polyreactivity”.
Take “QVQLVESGGGLVQAGGSLRLSCAASGFIFHRYAMGWYRQAPGKERELVASITRSGGSTYYADSVKGRFTISRDNAKNTVYLQMNSLKPEDTAVYYCAAQLPSYYKYPRHDYWGQGTQVTVSS”: the “polyreactivity (PSR sort gate)” value is reported as “high polyreactivity”.
With “QVQLVESGGGLVQAGGSLRLSCAASGGIYRYYAMGWYRQAPGKERELVAAISTSGTDTYYADSVKGRFTISRDNAKNTVYVQMNSLIPEDTAVYYCAAELYRYGFYEPIYPYSYDYWGQGTQVTVSS”, the “polyreactivity (PSR sort gate)” value is recorded as “low polyreactivity”.
As to “QVQLVESGGGLVQAGGSLRLSCAASGRTFIGYAMGWYRQAPGKERELVAAISSSGGRTYYADSVKGRFTISRDNAKNTVYLQMNSLKPEDTAVYYCNAVRYVLGYSYDYNYWGQGTQVTVSS”, the “polyreactivity (PSR sort gate)” value is given as “high polyreactivity”.
As to “QVQLVESGGGLVQAGGSLRLSCAASGIIFYVYAMGWYRQAPGKERELVAAISDTAGDTYYADSVKGRFTISRDNAKNTVYLQMNSLKPEDTAVSYCAADYYPLVGYWGQGTQVTVSS”, the “polyreactivity (PSR sort gate)” value is recorded as “low polyreactivity”.
As for “QVQLQESGGGLVQAGGSLGCAASGNISTRSEMGWYRQSPGKEREFVATINSGGITNYADSVKGRFTISRDNAKNTVYLRMNSLKPEDTAVYYRAVYGYFSDPYDYWGQGTQVTVSS”, the “polyreactivity (PSR sort gate)” value is “low polyreactivity”.
With “QLQLVESGGGLVQAGGSLRLSCASGLTFYWYAMGWYRQAPGKERELVAAINVRGGSTYYADSVKGRFTISRDNAKNTVYLQMNSLKPEDTAGYDCASYYPGFSYRYDYWGQGSQVTVSS”, the “polyreactivity (PSR sort gate)” value is listed as “low polyreactivity”.
In the case of “QVQLVESGGGLVQAGGSLRLSCAASGLTFGAYAMGWYRQAPGKEREFVAAITYSGGSTNYADSVKGRFTISRDNAMNTVYLQMNSLKPEDTAVYYCNAGYYSPWAFYPYDYWGQGTQVTVSS”, the “polyreactivity (PSR sort gate)” value is listed as “high polyreactivity”.
For “QVQLVESGGGLVQAGGSLRLSCAASGSTFAFNAMGWYRQAPGKERELVATISQSGGSTYYADSVKGRFTISRDNAKNTVYLQMNSLKPEDTAVYYCAKRYWSKWYGRYEYWGQGTQVTVSS”, the “polyreactivity (PSR sort gate)” value is reported as “low polyreactivity”.
Turning to “QVQLVESGGGLVQEGGSLRLSCASSGSTFPRYVMGWYRKQTGTESELVAAISSSSGRTFYADSVKGRFTISRDNAKNTVYLQMNSLKPEDTAVYYCAARTSFNVHYWGQGTQVTVSS”, the “polyreactivity (PSR sort gate)” value is recorded as “high polyreactivity”.
Consider “QVQLVESGGGLVQAGGSLRLSCAASGSTSTYNAMGWYRQAPGKERELVAAITESGGSTYYADSVKGRFTISRDNAKNTVYLQMNSLKPEDTAVYYCAADLTYTYEFWGQGTQVTVSS”, for which the “polyreactivity (PSR sort gate)” value is recorded as “low polyreactivity”.
Turning to “QVQLVESGGGLVQAGGSLRLICAASGRTIDHYAMGWYRQAPGKERELVAAISTTGGSTYYADSVKGRFTISRDNAKNTVYLQMNSLKPEDTAVYYCAARGLRTGGYWGQGTQVTVSS”, the “polyreactivity (PSR sort gate)” value is recorded as “high polyreactivity”.
Consider “QVQLVESGGGLVQAGGSLRLSCAASGSTFFFYAMGWYRQAPGKERELVAAISRSGVSTYYADSVKGRFTISRDNAKNNVYLQMNSLKPEDTAVYYCAKGGSRDRYGYWGQGTQVTVSS”, for which the “polyreactivity (PSR sort gate)” value is “high polyreactivity”.
The entry for “QVQLVESGGGLVQAGGSLRLSCAASGFTFSRYVMGWYRQAPGKERELVATISSDGDDTYYADSVKGRFTISRDNAKNTVYLQMNSLKPEDTAVYYCAAESYTYYADYGYGYWGQGTQVTVSS” is “high polyreactivity”; for “HVQLQESGGGLVQAGGSLRLSCAASGYISHADEMGWYRQAPGKEHELVASISNGGSTNYADSVKGRFTISRDNAKNTVYLQMNSLKSEVTAVYYCAAWTGQVDFHYYWGQGTQVSVSS” it is “low polyreactivity”.
